According to the supplement of paper PMC9170038:

tested on: MS2 coat protein; experiment: apparent KD of MS2 coat protein; higher = weaker reporter binding; conditions: Eterna round: R107; input ligand: theophylline 20 uM
In short: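 Designed RNA switches were transcribed on-chip from Illumina sequencing clusters and titrated with SNAP-549-labelled MS2 coat protein in twofold steps from 0.7 or 1.5 nM up to 3 µM. Each step lasted 0.8–1.5 h at first and 10–20 min by the end, in 100 mM Tris-HCl pH 7.5, 80 mM KCl and 4 mM MgCl2, without or with constant ligand. Apparent KD is the median, for each design, of fits to normalised cluster binding curves.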

Sequence | apparent KD of MS2 coat protein
UGUAUGUGAUUUGAUACCAGACCAGCUGGUGGUCCAUGAGGAACACCCAUGGAGGUUUGGGUCCCUUGGCAGCAAAUCGCAUACU [SS Theo B #24 Ms20] | 130 nM
ACAUGAAGAACAGCGGUGGGCGCGCUCGAUACCAGUACUUUAAAAUACCCUUGGCAGCGACAUGAGGAUCACCCAUGUGAGAUGA [XTheo A #4] | 18.5 nM
AAUCGUAAGGCGGCCGCCACUACACAUGAGGAUCACCCAUGUCUCGCGGGCUUGCGUUGGGAUUGUAGGACCGGGCCAGUAAUAA [Exclusion - Tryptophan B (Freestyle 12)] | 37.9 nM
GAUACCAUGAUCCUCCUGGUAUCGGCUGAUACCAGCCAGCUGACUGGCCCUUGGCAGCAGCAUACAUGAGGAUCACCCAUGUUAA [(T)''-(M)'-(T)'-(Theo)-(Ms2)_Design4] | 163 nM
GGCCUAUGGCGCGAUACCAGCUUGAGUGUACUGGCCAGGUACAUGAGGAUCACCCAUGUAAGCCCUUGGCAGCGCGUCAUAGGCC [#1 Exclusion - Theophylline B Attempt #23 (HarryS)] | 17.9 nM
CUAUAAGUAACUGAUACCAGUGUACUGACAUGAGGAUCACCCAUGUUGGGUUUUGUUGUACACCCUUGGCAGCAGAAUCUUGUAG [AstrosExyTheB#15] | 62.3 nM
AUAACAUGAGGAUCACCCAUGUUGAGUGAUACCAGACUAUGUAAUGUCCCUUGGCAGCACAAGUAAAGUUAUAAAUAAUGAUAGA [#12 SameState-TheophyllineA] | 55.1 nM
ACAUGAGGAUCACCCAUGUACAUCACCCGACGAGGACCGGUACGGCCGCCACUCGGGUAUAUAUAUACAUCGGGUGGUUUUGCAU [a15jan] | 88.4 nM
AGGACGGUCGGAAGGAGCGGUACAUGAGGAUCACCCAUGUACUCCUGGGCAUCCGUAGUGUGCCAGGUAGGUCGCCGAUUGCGGG [XArg-B8] | 19.8 nM
AAUAACAUGAGGAUCACCCAUGUAAAAGAUACCAGAUGCAUGAUGAUCCCUUGGCAGCUUAACGCUGAUUGAUUACAAUCAGCGA | 128 nM
UGUAAUGGGAUCAACCCAUGAGAGUCUGAAGGAGCGAUCGUAAGAUCAGGUAGGUCGCAGGAGACAUGAGGAUCACCCAUGUAUA [Arg A Ex t2] | 56.6 nM
GGGAGAUAGGCGGCCGCCACUGAUUUUCAUAUAUAUAUAACAUGAGGAUCACCCAUGUAGAUAUACAGGACCGGGCCUAUUUUUU [aaaE] | 22.5 nM
GAUCGAAAUAACGUCUAGGAAAACUAGACGCGAGGACCGGUACGGCCGCCACUCGGGUGGCACAUGAGGAUCACCCAUGUAGAUC [#SwitchBubble 5 #GuTurnoff #MS2 3'] | 110 nM
CGUAUCGUAACUGAUACCAGUGUACUGACAUGAGGAUCACCCAUGUUGGGUUUUGUUGUACACCCUUGGCAGCAGAAUCGAUACG [AstrosExyTheB#6] | 68.6 nM

same assay, conditions: Eterna round: R107; input ligand: theophylline 2 mM

Sequence | apparent KD of MS2 coat protein
AUUGUCGCGUCGGCCGCCACUGUCAUGGUUUUCGUGGAACACAUGAGGAUCACCCAUGUAAUUGACAGGACCGGGACGUGGCGGC [Vevea] | 10.6 nM
ACAUGAGGAUCACCCAUGUACAUGAGGGAAGGAGCGGUACAUGUACCAGGUAGGUCGCCCAACAGCAUCAGCCAUGUACAUCAGC [ggvmullin] | 90.4 nM
AGUUAUUCGAACAUGGUUGACGAGUGGCAACGAGGACCGGUACGGCCGCCACUCGAAUAAACAUGAGGAUCACCCAUGUACAAAU [T''-M'-T'-T-MS2 - Design 10] | 442 nM
CGGGUUGGACCAGGAAAUGGUCUGACGCGCCGAGGACCGGUACGGCCGCCACUCGCGGGUACAUGAGGAUCACCCAUGUCGGUGG [#1 Same State - Tryptophan A Attempt #12 (HarryS)] | 61.7 nM
ACAUUUAACUGAAGGAGCGUGAUUAACAUGAGGAUCACCCAUGUAACUUAGAUGCUUAUAUCACAGGUAGGUCGCAGACUAAUGA [JR_ExcArginiB_Sub011] | 14.9 nM
AGCAGCUCGAAAGAGUUGCACUCAUGUGAAGGAGCGCGCGUUAGCGCAGGUAGGUCGCACAUGAGGAUCACCCAUGUACCUUCUA [MAT - Exclusion Arginine A - Mod of Eli - D15] | 268 nM
GGUUUAUAUAUAUAUAUAUAGAUUACUGAAGGAGCGGGAAAUAACCCAGGUAGGUCGCAGAGAUCCACAUGAGGAUCACCCAUGU [!0.E] | 54.3 nM
CUCCUGGGAGCGGCCGCCACUGGAGGCCUUGCGCGACAUGAGGAUCACCCAUGUUGGCCCGGCCUCAGGACCGGGUUCGCGCGAG [Same State - Tryptophan B Attempt #2] | 9.73 nM
CCUAUCCAGUCGGCCGCCACUGACCAUUUGGAACAGUGGGUGAAAACAUGAGGAUCACCCAUGUACAGGACCGGGACUGUAUAGG [Ex Tryptophan B 20] | 13.9 nM
GGGUACAUCGCGGCCGCCACUGGUGUAAAUACAUGAGGAUCACCCAUGUCGAUGGAGACAUCGGGUAGGACCGGGUGAUGUACCG | 30.2 nM
AAAUUAUAGGCGGCCGCCACUAGAGUUAGGCUUAUGUACUGGGUAACAUGAGGAUCACCCAUGUAUAGGACCGGGCCAUAAUAAA [Same State - Tryptophan B (Freestyle 3)] | 63.5 nM
AUAAUAAGGUGAUCCUAAGUCGUACCGUAACGAGGACCGGUACGGCCGCCACUCGAACAUGAGGAUCACCCAUGUAUGUACGACA [M'-T'-T-MS2-T'' - Design 6] | 170 nM
UAACAUGAGGCGGCCGCCACUCAACAUGAGGAUCACCCAUGUAUGUGUAAACAUGAGGAUCACCCGAGGACCGGGCCCUUGUAAU [Same State Tryptophan B 4] | 39.5 nM
UGUAUGUGAUUUGAUACCAGACCAGCUGGUGGUCCAUGAGGAACACCCAUGGAGGUUUGGGUCCCUUGGCAGCAAAUCGCAUACU [SS Theo B #24 Ms20] | 74.5 nM
AAUCGUAAGGCGGCCGCCACUACACAUGAGGAUCACCCAUGUCUCGCGGGCUUGCGUUGGGAUUGUAGGACCGGGCCAGUAAUAA [Exclusion - Tryptophan B (Freestyle 12)] | 23.5 nM
GGCCUAUGGCGCGAUACCAGCUUGAGUGUACUGGCCAGGUACAUGAGGAUCACCCAUGUAAGCCCUUGGCAGCGCGUCAUAGGCC [#1 Exclusion - Theophylline B Attempt #23 (HarryS)] | 32.2 nM
ACAUGAGGAUCACCCAUGUACAUCACCCGACGAGGACCGGUACGGCCGCCACUCGGGUAUAUAUAUACAUCGGGUGGUUUUGCAU [a15jan] | 40 nM
AGGACGGUCGGAAGGAGCGGUACAUGAGGAUCACCCAUGUACUCCUGGGCAUCCGUAGUGUGCCAGGUAGGUCGCCGAUUGCGGG [XArg-B8] | 21.5 nM
UGUAAUGGGAUCAACCCAUGAGAGUCUGAAGGAGCGAUCGUAAGAUCAGGUAGGUCGCAGGAGACAUGAGGAUCACCCAUGUAUA [Arg A Ex t2] | 51.1 nM
GGGAGAUAGGCGGCCGCCACUGAUUUUCAUAUAUAUAUAACAUGAGGAUCACCCAUGUAGAUAUACAGGACCGGGCCUAUUUUUU [aaaE] | 19.7 nM
GAUCGAAAUAACGUCUAGGAAAACUAGACGCGAGGACCGGUACGGCCGCCACUCGGGUGGCACAUGAGGAUCACCCAUGUAGAUC [#SwitchBubble 5 #GuTurnoff #MS2 3'] | 100 nM

same assay, conditions: Eterna round: R107; input ligand: tryptophan 2.4 mM

Sequence | apparent KD of MS2 coat protein
AUUGUCGCGUCGGCCGCCACUGUCAUGGUUUUCGUGGAACACAUGAGGAUCACCCAUGUAAUUGACAGGACCGGGACGUGGCGGC [Vevea] | 12.2 nM
ACAUGAGGAUCACCCAUGUACAUGAGGGAAGGAGCGGUACAUGUACCAGGUAGGUCGCCCAACAGCAUCAGCCAUGUACAUCAGC [ggvmullin] | 69 nM
CGAGUUCGCUGAUGGGCUACGUCAGGUGAUACCAGCCACUCCCGCGGCCCUUGGCAGCACAUGAGGAUCACCCAUGUAGAGCUUG [Esinve] | 15 nM
CGGGUUGGACCAGGAAAUGGUCUGACGCGCCGAGGACCGGUACGGCCGCCACUCGCGGGUACAUGAGGAUCACCCAUGUCGGUGG [#1 Same State - Tryptophan A Attempt #12 (HarryS)] | 93 nM
ACAUUUAACUGAAGGAGCGUGAUUAACAUGAGGAUCACCCAUGUAACUUAGAUGCUUAUAUCACAGGUAGGUCGCAGACUAAUGA [JR_ExcArginiB_Sub011] | 15.5 nM
AGCAGCUCGAAAGAGUUGCACUCAUGUGAAGGAGCGCGCGUUAGCGCAGGUAGGUCGCACAUGAGGAUCACCCAUGUACCUUCUA [MAT - Exclusion Arginine A - Mod of Eli - D15] | 108 nM
GGUUUAUAUAUAUAUAUAUAGAUUACUGAAGGAGCGGGAAAUAACCCAGGUAGGUCGCAGAGAUCCACAUGAGGAUCACCCAUGU [!0.E] | 36.8 nM
CUCCUGGGAGCGGCCGCCACUGGAGGCCUUGCGCGACAUGAGGAUCACCCAUGUUGGCCCGGCCUCAGGACCGGGUUCGCGCGAG [Same State - Tryptophan B Attempt #2] | 10.1 nM
GGGUACAUCGCGGCCGCCACUGGUGUAAAUACAUGAGGAUCACCCAUGUCGAUGGAGACAUCGGGUAGGACCGGGUGAUGUACCG | 24.3 nM
AUAAUAAGGUGAUCCUAAGUCGUACCGUAACGAGGACCGGUACGGCCGCCACUCGAACAUGAGGAUCACCCAUGUAUGUACGACA [M'-T'-T-MS2-T'' - Design 6] | 75.9 nM
UAACAUGAGGCGGCCGCCACUCAACAUGAGGAUCACCCAUGUAUGUGUAAACAUGAGGAUCACCCGAGGACCGGGCCCUUGUAAU [Same State Tryptophan B 4] | 54.2 nM
AAAUAGGUAGGAGAUACCAGAUACGUUAACAUGAGGAUCACCCAUGUGUAUGCACUUAGUGUCCCUUGGCAGCUCGAGGAUCUGG [#18 Same State - Theophylline B] | 27.4 nM
UGUAUGUGAUUUGAUACCAGACCAGCUGGUGGUCCAUGAGGAACACCCAUGGAGGUUUGGGUCCCUUGGCAGCAAAUCGCAUACU [SS Theo B #24 Ms20] | 89.7 nM
ACAUGAAGAACAGCGGUGGGCGCGCUCGAUACCAGUACUUUAAAAUACCCUUGGCAGCGACAUGAGGAUCACCCAUGUGAGAUGA [XTheo A #4] | 18.5 nM
AAUCGUAAGGCGGCCGCCACUACACAUGAGGAUCACCCAUGUCUCGCGGGCUUGCGUUGGGAUUGUAGGACCGGGCCAGUAAUAA [Exclusion - Tryptophan B (Freestyle 12)] | 21.3 nM
GAUACCAUGAUCCUCCUGGUAUCGGCUGAUACCAGCCAGCUGACUGGCCCUUGGCAGCAGCAUACAUGAGGAUCACCCAUGUUAA [(T)''-(M)'-(T)'-(Theo)-(Ms2)_Design4] | 61 nM
GGCCUAUGGCGCGAUACCAGCUUGAGUGUACUGGCCAGGUACAUGAGGAUCACCCAUGUAAGCCCUUGGCAGCGCGUCAUAGGCC [#1 Exclusion - Theophylline B Attempt #23 (HarryS)] | 9.74 nM
CUAUAAGUAACUGAUACCAGUGUACUGACAUGAGGAUCACCCAUGUUGGGUUUUGUUGUACACCCUUGGCAGCAGAAUCUUGUAG [AstrosExyTheB#15] | 54 nM
AUAACAUGAGGAUCACCCAUGUUGAGUGAUACCAGACUAUGUAAUGUCCCUUGGCAGCACAAGUAAAGUUAUAAAUAAUGAUAGA [#12 SameState-TheophyllineA] | 47.2 nM
AGGACGGUCGGAAGGAGCGGUACAUGAGGAUCACCCAUGUACUCCUGGGCAUCCGUAGUGUGCCAGGUAGGUCGCCGAUUGCGGG [XArg-B8] | 16.2 nM
AAUAACAUGAGGAUCACCCAUGUAAAAGAUACCAGAUGCAUGAUGAUCCCUUGGCAGCUUAACGCUGAUUGAUUACAAUCAGCGA | 26.4 nM
UGUAAUGGGAUCAACCCAUGAGAGUCUGAAGGAGCGAUCGUAAGAUCAGGUAGGUCGCAGGAGACAUGAGGAUCACCCAUGUAUA [Arg A Ex t2] | 39.5 nM
CGUAUCGUAACUGAUACCAGUGUACUGACAUGAGGAUCACCCAUGUUGGGUUUUGUUGUACACCCUUGGCAGCAGAAUCGAUACG [AstrosExyTheB#6] | 62.9 nM
